In the supplement of paper PMC10567573:

B1: BTBD1 (parent)
chain: FVLGKGRGAAAAGGPQRIPAHRFV
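Further: lentivirally expressed fusions sorted by FACS into six bins by GFP to DsRed ratio, PSI derived from sequencing read proportions per bin multiplied by bin number.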

Variants of: B1
Experiment: protein stability index of a GFP-peptide fusion (GPS, HEK-293T) (PSI 1-6); higher = more stable
Settings: c terminus: a fixed tail appended
Work on FVLGKGRGAAAAGGPQRIPARRFV yielded a protein stability index of 2.32.
For FVLGKGRGAAAAGGPQRIPAFRFV, the protein stability index was 4.04.
With FVLGKGRGAAAAGGPQRIPAARFV the protein stability index was 2.14.
Work on FVLGKGRGAAAAGGPQRIPAGRFV yielded a protein stability index of 1.77.
FVLGKGRGAAAAGGPQRIPAQRFV showed a protein stability index of 1.91.
With FVLGKGRGAAAAGGPQRIPALRFV the protein stability index was 2.61.
In the case of FVLGKGRGAAAAGGPQRIPASRFV, the protein stability index is reported as 1.56.
Variant FVLGKGRGAAAAGGPQRIPATRFV has a protein stability index of 2.72.
In the case of FVLGKGRGAAAAGGPQRIPANRFV, the protein stability index is reported as 1.88.
Work on FVLGKGRGAAAAGGPQRIPAVRFV yielded a protein stability index of 2.72.
Variant FVLGKGRGAAAAGGPQRIPAMRFV has a protein stability index of 3.14.
FVLGKGRGAAAAGGPQRIPAPRFV gave a protein stability index of 1.97.
With FVLGKGRGAAAAGGPQRIPADRFV the protein stability index was 2.22.
For FVLGKGRGAAAAGGPQRIPAHSFV, the protein stability index was 1.36.
For FVLGKGRGAAAAGGPQRIPAHVFV, the protein stability index was 2.14.
In the case of FVLGKGRGAAAAGGPQRIPAHKFV, the protein stability index is reported as 1.82.
FVLGKGRGAAAAGGPQRIPAHLFV showed a protein stability index of 2.3.
Variant FVLGKGRGAAAAGGPQRIPAHGFV has a protein stability index of 1.08.
FVLGKGRGAAAAGGPQRIPAHDFV gave a protein stability index of 2.35.
Variant FVLGKGRGAAAAGGPQRIPAHTFV has a protein stability index of 5.22.
With FVLGKGRGAAAAGGPQRIPAHMFV the protein stability index was 4.76.
With FVLGKGRGAAAAGGPQRIPAHNFV the protein stability index was 2.53.
Variant FVLGKGRGAAAAGGPQRIPAHQFV has a protein stability index of 1.84.
Work on FVLGKGRGAAAAGGPQRIPAHHFV yielded a protein stability index of 1.72.
FVLGKGRGAAAAGGPQRYPAHRFV gave a protein stability index of 1.74.
Variant FVLGKGRGAAAAGGPQRWPAHRFV has a protein stability index of 1.91.
Variant FVLGKGRGAAAAGGPQRQPAHRFV has a protein stability index of 2.03.
FVLGKGRGAAAAGGPQRPPAHRFV gave a protein stability index of 2.12.
In the case of FVLGKGRGAAAAGGPQRDPAHRFV, the protein stability index is reported as 2.16.
FVLGKGRGAAAAGGPQRMPAHRFV showed a protein stability index of 2.87.
Variant FVLGKGRGAAAAGGPQRFPAHRFV has a protein stability index of 1.93.
Variant FVLGKGRGAAAAGGPQRNPAHRFV has a protein stability index of 2.12.
With FVLGKGRGAAAAGGPQRCPAHRFV the protein stability index was 2.27.
In the case of FVLGKGRGAAAAGGPQRRPAHRFV, the protein stability index is reported as 1.46.
Work on FVLGKGRGAAAAGGPQRIPAHRFL yielded a protein stability index of 1.73.
FVLGKGRGAAAAGGPQRIPAHRFP showed a protein stability index of 2.47.
In the case of FVLGKGRGAAAAGGPQRIPAHRFQ, the protein stability index is reported as 1.7.
For FVLGKGRGAAAAGGPQRIPAHRFK, the protein stability index was 2.12.
Work on FVLGKGRGAAAAGGPQRIPAHRFR yielded a protein stability index of 1.8.
Variant FVLGKGRGAAAAGGPQRIPAHRFD has a protein stability index of 2.27.
Work on FVLGKGRGAAAAGGPQRIPAHRFT yielded a protein stability index of 2.84.
FVLGKGRGAAAAGGPQRIPAHRFG showed a protein stability index of 1.56.
Work on FVLGKGRGAAAAGGPQRIPAHRFM yielded a protein stability index of 3.
Work on FVLGKGRGAAAAGGPQRIPAHRFS yielded a protein stability index of 2.21.
Variant FVLGKGRGAAAAGGPQRIPAHRQV has a protein stability index of 2.19.
FVLGKGRGAAAAGGPQRIPAHREV gave a protein stability index of 2.04.
With FVLGKGRGAAAAGGPQRIPAHRMV the protein stability index was 2.58.
In the case of FVLGKGRGAAAAGGPQRIPAHRPV, the protein stability index is reported as 2.43.
In the case of FVLGKGRGAAAAGGPQRIPAHRNV, the protein stability index is reported as 1.9.
FVLGKGRGAAAAGGPQRIPAHRTV showed a protein stability index of 2.2.
For FVLGKGRGAAAAGGPQRIPAHRHV, the protein stability index was 1.45.
With FVLGKGRGAAAAGGPQRIPAHRRV the protein stability index was 1.25.
FVLGKGRGAAAAGGPQRIPAHRKV showed a protein stability index of 3.99.
Variant FVLGKGRGAAAAGGPQRIPAHRVV has a protein stability index of 1.93.
For FVLGKGRGAAAAGGPQRIPAHRSV, the protein stability index was 2.93.
FVLGKGRGAAAAGGPQRIPAHRYV gave a protein stability index of 1.71.
With FVLGKGRGAAAAGGPQRIPAHRCV the protein stability index was 1.08.
FVLGKGRGAAAAGGPQRIPSHRFV gave a protein stability index of 1.53.
With FVLGKGRGAAAAGGPQRIPTHRFV the protein stability index was 1.74.
In the case of FVLGKGRGAAAAGGPQRIPLHRFV, the protein stability index is reported as 1.76.
FVLGKGRGAAAAGGPQRIPEHRFV gave a protein stability index of 2.49.
For FVLGKGRGAAAAGGPQRIPQHRFV, the protein stability index was 1.73.
Work on FVLGKGRGAAAAGGPQRIPGHRFV yielded a protein stability index of 1.46.
Work on FVLGKGRGAAAAGGPQRIPHHRFV yielded a protein stability index of 2.4.
For FVLGKGRGAAAAGGPQRIPMHRFV, the protein stability index was 2.09.
For FVLGKGRGAAAAGGPQRIPRHRFV, the protein stability index was 1.35.
Variant FVLGKGRGAAAAGGPQRIPNHRFV has a protein stability index of 1.49.
Work on FVLGKGRGAAAAGGPQRIPCHRFV yielded a protein stability index of 1.73.
Variant FVLGKGRGAAAAGGPQRIPFHRFV has a protein stability index of 2.32.
For FVLGKGRGAAAAGGTQRIPAHRFV, the protein stability index was 2.
With FVLGKGRGAAAAGGVQRIPAHRFV the protein stability index was 1.43.
FVLGKGRGAAAAGGRQRIPAHRFV showed a protein stability index of 1.99.
Work on FVLGKGRGAAAAGGQQRIPAHRFV yielded a protein stability index of 1.5.
With FVLGKGRGAAAAGGYQRIPAHRFV the protein stability index was 1.49.
In the case of FVLGKGRGAAAAGGWQRIPAHRFV, the protein stability index is reported as 1.03.
Variant FVLGKGRGAAAAGGSQRIPAHRFV has a protein stability index of 1.7.
Variant FVLGKGRGAAAAGGPTRIPAHRFV has a protein stability index of 1.39.
For FVLGKGRGAAAAGGPMRIPAHRFV, the protein stability index was 2.2.
Variant FVLGKGRGAAAAGGPSRIPAHRFV has a protein stability index of 1.9.
FVLGKGRGAAAAGGPARIPAHRFV gave a protein stability index of 1.6.
In the case of FVLGKGRGAAAAGGPVRIPAHRFV, the protein stability index is reported as 2.31.
In the case of FVLGKGRGAAAAGGPGRIPAHRFV, the protein stability index is reported as 1.87.
Work on FVLGKGRGAAAAGGPPRIPAHRFV yielded a protein stability index of 1.86.
FVLGKGRGAAAAGGPNRIPAHRFV gave a protein stability index of 2.54.
FVLGKGRGAAAAGGPERIPAHRFV showed a protein stability index of 1.67.
In the case of FVLGKGRGAAAAGGPRRIPAHRFV, the protein stability index is reported as 1.9.
In the case of FVLGKGRGAAAAGGPIRIPAHRFV, the protein stability index is reported as 2.2.
FVLGKGRGAAAAGGPDRIPAHRFV showed a protein stability index of 1.41.
Work on FVLGKGRGAAAAGGPQCIPAHRFV yielded a protein stability index of 1.9.
With FVLGKGRGAAAAGGPQQIPAHRFV the protein stability index was 1.92.
FVLGKGRGAAAAGGPQNIPAHRFV showed a protein stability index of 1.64.
FVLGKGRGAAAAGGPQYIPAHRFV gave a protein stability index of 1.49.
In the case of FVLGKGRGAAAAGGPQKIPAHRFV, the protein stability index is reported as 2.01.
In the case of FVLGKGRGAAAAGGPQHIPAHRFV, the protein stability index is reported as 1.86.
Variant FVLGKGRGAAAAGGPQMIPAHRFV has a protein stability index of 1.56.
With FVLGKGRGAAAAGGPQLIPAHRFV the protein stability index was 2.01.
FVLGKGRGAAAAGGPQSIPAHRFV gave a protein stability index of 1.86.
Work on FVLGKGRGAAAAGGPQEIPAHRFV yielded a protein stability index of 2.13.
FVLGKGRGAAAAGGPQVIPAHRFV showed a protein stability index of 2.52.
With FVLGKGRGAAAAGGPQWIPAHRFV the protein stability index was 1.41.
With FVLGKGRGAAAAGGPQIIPAHRFV the protein stability index was 3.15.
Work on FVLGKGRGAAAAGGPQDIPAHRFV yielded a protein stability index of 2.54.
With FVLGKGRGAAAAGGPQFIPAHRFV the protein stability index was 1.28.
Variant FVLGKGRGAAAAGGPQRIIAHRFV has a protein stability index of 2.16.
Variant FVLGKGRGAAAAGGPQRIHAHRFV has a protein stability index of 1.27.
Variant FVLGKGRGAAAAGGPQRIDAHRFV has a protein stability index of 1.53.
Work on FVLGKGRGAAAAGGPQRIAAHRFV yielded a protein stability index of 1.34.
Work on FVLGKGRGAAAAGGPQRIRAHRFV yielded a protein stability index of 1.81.
Work on FVLGKGRGAAAAGGPQRINAHRFV yielded a protein stability index of 2.06.
Variant FVLGKGRGAAAAGGPQRIQAHRFV has a protein stability index of 2.17.
Work on FVLGKGRGAAAAGGPQRIEAHRFV yielded a protein stability index of 1.78.
Work on FVLGKGRGAAAAGGPQRITAHRFV yielded a protein stability index of 1.88.
Variant FVLGKGRGAAAAGGPQRILAHRFV has a protein stability index of 1.5.
FVLGKGRGAAAAGGPQRIVAHRFV gave a protein stability index of 1.26.
FVLGKGRGAAAAGGPQRISAHRFV gave a protein stability index of 1.31.
